According to patent US20260176701A1 (BRIGHAM AND WOMEN S HOSPITAL, published 2026):

T1: recombinant human ORF1p (LINE-1 open reading frame 1 protein, L1RP) (human, UniProt Q9UN81 1-338)
T1 construct: Expressed in E. coli, tag cleaved, monodisperse homotrimer; Immobilized on the CM5 chip in SPR; also called trimeric ORF1p
T1 sequence: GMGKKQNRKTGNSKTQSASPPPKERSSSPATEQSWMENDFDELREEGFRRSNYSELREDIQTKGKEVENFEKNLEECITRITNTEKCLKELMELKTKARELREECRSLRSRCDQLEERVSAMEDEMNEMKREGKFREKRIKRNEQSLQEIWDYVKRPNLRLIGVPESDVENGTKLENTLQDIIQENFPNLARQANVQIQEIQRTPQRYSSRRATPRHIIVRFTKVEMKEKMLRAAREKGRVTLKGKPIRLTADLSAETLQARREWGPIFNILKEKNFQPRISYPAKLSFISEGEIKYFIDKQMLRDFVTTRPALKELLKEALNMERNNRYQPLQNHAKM


What was measured:
[1] = target: T1, recombinant human ORF1p (LINE-1 open …); test: Simoa sandwich, recombinant ORF1p at 40 pg/mL in diluent buffer, signal/background heat map; capture on the x axis, detector on the y axis
Method: ORF1p Simoa assays. Simoa assays were performed on an HD-X Analyzer (Quanterix Corp.), with all assay reagents and consumables loaded onto the instrument according to the manufacturer's instructions. 250,000 capture beads and 250,000 helper (non-conjugated) beads were used in each Simoa assay. A three-step assay configuration was used for the first- and second-generation assays, consisting of a 15-minute target capture step (incubation of capture beads with 100 μL sample), 5-minute incubation with detector reagent (0.3 μg/mL for both first- and second-generation assays), and 5-minute incubation with streptavidin-β-galactosidase (150 pM for first-generation assay; 300 pM for second-generation assays). The beads were washed with System Wash Buffer 1 (Quanterix Corp.) after each assay step. Upon the final wash cycle, the beads were loaded together with the fluorogenic enzyme substrate resorufin β-D-galactopyranoside into a 216,000-microwell array, which was subsequently sealed with oil. Automated imaging and counting of “on” and “off” wells and calculation of average enzyme per bead (AEB) were performed by the instrument. Calibration curves were fit using a 4PL fit with a 1/y² weighting factor, and the limit of detection (LOD) was determined as three standard deviations above the blank.
Signal/background was also determined for a number of the pairs by Simoa using recombinant ORF1p protein in diluent buffer; the results are shown in FIG. 15. When the rabbit monoclonal antibodies were used as capture and detector, the background was high. The best combinations were the rabbit monoclonal antibodies as capture/Ab6 detector; Nb5-5 capture/rabbit monoclonal antibodies detector; and 4H1 capture/rabbit monoclonal antibody detector pairs.

[2] = target: T1, recombinant human ORF1p (LINE-1 open …); test: SPR (Biacore 8K), ORF1p immobilized on CM5, single-cycle kinetics, 1:1 fit
Method: Surface plasmon resonance (SPR) assays. Binding kinetics (kₐ, kd, and KD) of antibody and nanobody constructs for ORF1p were obtained on a Biacore 8K instrument (Cytiva). Recombinant ORF1p was immobilized on a Series S CM5 sensor chip at 1.5 μg/ml using EDC/NHS coupling chemistry according to the manufacturer's guidelines. Nanobodies and antibodies were prepared as analytes and run in buffer containing 20 mM HEPES pH 7.4, 150 mM NaCl, and 0.05% Tween-20. Analytes were injected at 30 μl/min in single-cycle kinetics experiments at concentrations of 0.1, 0.3, 1, 3.3, and 10 nM, with association times of 120-180 sec, and a dissociation time of 1200-7200 sec, depending on observed off-rate. Residual bound protein was removed between experiments using 10 mM glycine-HCl pH 3.0. Data were analyzed using Biacore software, fitting a Langmuir 1:1 binding model to sensorgrams to calculate kinetic parameters.

Row | binding result [1] | Kd [2] | Binder
1 | binds |  | 33A8 (antibody, V domains shown, Rabbit monoclonal antibody; also called 33A8-1) VH: QSLEESGGGLVQPEGSLTLTCKASGFSFINNNHICWVRQAPGKGLEWIACIYAGSTGYTYYANWAKGRFTISKTSSTTVTLQMTSLTAADTATYFCARVPYAGYVNYGYTFFNLWGPGTLVTVSS VL: AAVLTQTPSPVSAPVGGTVTISCQSSQSVYRTNDLAWYQQKPGQPPKLLIYWASKLAAGVPSRFKGSGSGTQFTLTISGVQCDDAATYYCLGGYYDDGDLNAFGGGTEVVVN
2 | binds |  | 36D12 (antibody, V domains shown, Rabbit monoclonal antibody; also called 36D12-1) VH: QSVEESGGRLVTPGTPLTLTCTVSGFSLSTYAMGWFRQAPGKGLEWIGTIWSGAFTDYANWVNGRFTISKTSTTVDLKITSPTTEDTATYFCAREADSDLYTYFKLWGPGTLVTVSS VL: AYDMTQTPASVEVAVGGTVTLKCQASESIEIYLAWYQQKPGQPPKLLVYDASTLASGVPSRFKGSGSGTQFTLTISGVECADAATYYCQQGYRSDNVHNVFGGGTEVVVK
3 |  | 0.0092 nM | anti-ORF1 Nb dimer 2 Nb2-Nb2 (MT992) (VHH, Homodimeric tandem nanobody, short (GGGGS)x4 linker; also called Nb 2-2; Nb2-2 pMT992) DVQLVESGGGLVQAGGSLRLSCAASGRTDDIYTMGWFRQGPGKEREFVAVISWSITRRSSITHYADSVKGRFTISGENAENTVYLQMNTLKPEDTAVYYCAAKTGYSGSMSSYQDYDSWGQGTQVTVSGGGGSGGGGSGGGGSGGGGSMADVQLVESGGGLVQAGGSLRLSCAASGRTDDIYTMGWFRQGPGKEREFVAVISWSITRRSSITHYADSVKGRFTISGENAENTVYLQMNTLKPEDTAVYYCAAKTGYSGSMSSYQDYDSWGQGTQVTVSHHHHHH
4 |  | 0.0098 nM | anti-ORF1 Nb dimer 6 Nb5-Nb5 long linker (MT997) (bispecific antibody, Homodimeric tandem nanobody, long linker of 56 residues; also called Nb 5-5 long; Nb5-5LL) QVQLVESGGDLVQAGGSLRLSCAVSGGTSSNYGMGWFRQAPGKEREFVSSISWSGSRTLYSDSVKGRFTISRDNAKNTVDLQMNSLKPEDTAVYYCTAVREYRDYPQRDNFDYWGQGTQVTVSGGGGSGGGGSGGGGSGGGGSEAAAKEAAAKEAAAKSGGGGSGGGGSGGGGSGGGGSMAQVQLVESGGDLVQAGGSLRLSCAVSGGTSSNYGMGWFRQAPGKEREFVSSISWSGSRTLYSDSVKGRFTISRDNAKNTVDLQMNSLKPEDTAVYYCTAVREYRDYPQRDNFDYWGQGTQVTVSHHHHHH
5 |  | 0.48 nM | anti-ORF1 Nanobody 2 (Nb2) (VHH, Llama nanobody) VHH: DVQLVESGGGLVQAGGSLRLSCAASGRTDDIYTMGWFRQGPGKEREFVAVISWSITRRSSITHYADSVKGRFTISGENAENTVYLQMNTLKPEDTAVYYCAAKTGYSGSMSSYQDYDSWGQGTQVTVSH
6 |  | 0.19 nM | anti-ORF1 Nanobody 10 (Nb10) (VHH, Llama nanobody) VHH: QVQLVESGGGLVQAGESLRLSCQVSGRTFSISGAGWFRQAPGKEREFVAAITWTGGYPYYATSVKGRFTIARDDPENRVYLSMNSLKPEDTAVYYCATRRAGSLDFDYAQQTRYDNWGQGTQVTVSH
7 |  | 0.083 nM | anti-ORF1 Nb dimer 4 Nb5-Nb1 (MT994) (bispecific antibody, Heterodimeric tandem nanobody, short linker; also called Nb 5-1; Nb5-1 pMT994) QVQLVESGGDLVQAGGSLRLSCAVSGGTSSNYGMGWFRQAPGKEREFVSSISWSGSRTLYSDSVKGRFTISRDNAKNTVDLQMNSLKPEDTAVYYCTAVREYRDYPQRDNFDYWGQGTQVTVSGGGGSGGGGSGGGGSGGGGSMADVQLVESGGGLVQAGESLRLSCAASGRTLSSLNMAWFRQVPGKERDFVSLISRSGSTDYVHSVRGRFTISRDNAKNTVYLEMNSLKPEDTAVYYCAADDNYNGRYPFRDEYEYWGQGTQVTVSHHHHHH
8 | binds |  | 42D10 (antibody, V domains shown, Rabbit monoclonal antibody; also called 42D10-1) VH: QSVEESGGRLVTPGTPLTLTCTVSGFSLSSYAMTWVRQAPGKGLEWIGYIYAGGIADYANWAKGRFTISKTSTTVDLTITSPTTEDTATYFCAREGDSDDYVYLSLWGPGTLVTVSS VL: ALVMTQTPSSVSAAVGGTVTINCQASQSIVGYLAWYQQKPGQPPKLLIYRASTLASGVSSRFKGSGSGTEFTLTISGVQCADAATYYCQQGYINSNIDNTFGGGTEVVVK
9 | binds |  | 34H7 (antibody, V domains shown, Rabbit monoclonal antibody; also called 34H7-1; 37H7) VH: QSLEESGGDLVKPGASLTLTCTASGFSLNNYVMYWVRQAPGKGLESIACIYTGSGTTYYATWAKGRFTISKTSSTTVTLQMTSLTAADTATYFCARRTYTSDSYAGSFNLWGPGTLVTVSS VL: AYDMTQTPASVSEPVGGTVTIKCQASQSIGSNLAWYQQKPGQRPKLLIYAASYLASGAPSRFKGSGSGTEFTLTISGVQCDDAATYYCQQGWSSSDVDSTFGGGTEVVVK
10 | binds |  | 34C5 (antibody, V domains shown, Rabbit monoclonal antibody; also called 34C5-1) VH: QSVEESGGRLVKPDESLTLTCTVSGFSLSAYEMGWVRQAPGKGLEWIAAISTGDTPYYATWTKGRFTISRASSTTVDLKMTSPTTEDTATYFCARYGHNYEYVFDLWGQGTLVTVSS VL: AYDMTQTPASVSAAVGGTVTINCQASQSIGSYLSWYQQKPGQPPKLLIYSASTLASGVPSRFSGSGYGTEFTLTIGGVQCDDAAAYYCQQGESIGSVHNVFGGGTEVVVA
11 |  | 0.036 nM | anti-ORF1 Nb dimer 5 Nb5-Nb2 (MT995) (bispecific antibody, Heterodimeric tandem nanobody, short linker; also called Nb 5-2; Nb5-2 pMT995) QVQLVESGGDLVQAGGSLRLSCAVSGGTSSNYGMGWFRQAPGKEREFVSSISWSGSRTLYSDSVKGRFTISRDNAKNTVDLQMNSLKPEDTAVYYCTAVREYRDYPQRDNFDYWGQGTQVTVSGGGGSGGGGSGGGGSGGGGSMADVQLVESGGGLVQAGGSLRLSCAASGRTDDIYTMGWFRQGPGKEREFVAVISWSITRRSSITHYADSVKGRFTISGENAENTVYLQMNTLKPEDTAVYYCAAKTGYSGSMSSYQDYDSWGQGTQVTVSHHHHHH
12 |  | 0.24 nM | anti-ORF1 Nanobody 21 (Nb21) (VHH, Llama nanobody) VHH: QVQLAESGGGLVQAGGSLRLSCAASGRTSTIYIMGWFRQAPGKDREFVAGITYTGGYPYYADSVQGRFTLSNDNADHTAYLQMNNLKPEDSAVYYCAARSRGGITTHERDFGSWGQGTQVTVSH
13 |  | 0.11 nM | anti-ORF1 Nanobody 5 (Nb5) (VHH, Llama nanobody; also called Clone 5; C5) VHH: QVQLVESGGDLVQAGGSLRLSCAVSGGTSSNYGMGWFRQAPGKEREFVSSISWSGSRTLYSDSVKGRFTISRDNAKNTVDLQMNSLKPEDTAVYYCTAVREYRDYPQRDNFDYWGQGTQVTVSH
14 |  | 0.19 nM | anti-ORF1 Nanobody 9 (Nb9) (VHH, Llama nanobody) VHH: QVHLVESGGKLVQAGESLKLSCEVSGRTFSISGAGWFRQAPGKEREFVAAITWTGGYPYYDASVKGRFTISREDPDNTVYLSMNSLKPEDTAVYYCATRRAGDLDFSYAQQGRYDNWGQGTQVTVSH
15 | binds |  | 61A11 (antibody, V domains shown, Rabbit monoclonal antibody; also called 61A11-1) VH: QSVEESGGRLVTPGTPLTLTCTVSGIDLSSYVMGWVRQAPGKGLDWIGMIDTHDDTYFAPWARGRFTISRTSSTTVDLKVASTTTEDTATYFCAGNLALWGRGTLVTVSS VL: AQVLTQTPSPVSVAVGGTVTISCQSSQSVSSDNWLGWYQQKPGQPPKLLIYRASKLASGVSSRFKGSGSGTQFILTISDLECDDAATYYCAGGYSGSIIAFGGGTEVVVK
16 |  | 0.07 nM | anti-ORF1 Nb dimer 3 Nb5-Nb5 (MT993) (bispecific antibody, Homodimeric tandem nanobody, short linker; also called Nb 5-5; Nb5-5) QVQLVESGGDLVQAGGSLRLSCAVSGGTSSNYGMGWFRQAPGKEREFVSSISWSGSRTLYSDSVKGRFTISRDNAKNTVDLQMNSLKPEDTAVYYCTAVREYRDYPQRDNFDYWGQGTQVTVSGGGGSGGGGSGGGGSGGGGSMAQVQLVESGGDLVQAGGSLRLSCAVSGGTSSNYGMGWFRQAPGKEREFVSSISWSGSRTLYSDSVKGRFTISRDNAKNTVDLQMNSLKPEDTAVYYCTAVREYRDYPQRDNFDYWGQGTQVTVSHHHHHH
17 |  | 0.027 nM | anti-ORF1 Nb trimer Nb5-Nb5-Nb5 (MT996) (bispecific antibody, Homotrimeric tandem nanobody; also called Nb 5-5-5) QVQLVESGGDLVQAGGSLRLSCAVSGGTSSNYGMGWFRQAPGKEREFVSSISWSGSRTLYSDSVKGRFTISRDNAKNTVDLQMNSLKPEDTAVYYCTAVREYRDYPQRDNFDYWGQGTQVTVSGGGGSGGGGSGGGGSGGGGSMAQVQLVESGGDLVQAGGSLRLSCAVSGGTSSNYGMGWFRQAPGKEREFVSSISWSGSRTLYSDSVKGRFTISRDNAKNTVDLQMNSLKPEDTAVYYCTAVREYRDYPQRDNFDYWGQGTQVTVSGGGGSGGGGSGGGGSGGGGSMAQVQLVESGGDLVQAGGSLRLSCAVSGGTSSNYGMGWFRQAPGKEREFVSSISWSGSRTLYSDSVKGRFTISRDNAKNTVDLQMNSLKPEDTAVYYCTAVREYRDYPQRDNFDYWGQGTQVTVSHHHHHH
